This passage reports Km and Vmax results from PMC3020594.

Substrate in data set [1]: Nc1ncn([C@H]2C[C@H](O)[C@@H](CO)O2)c(=O)n1
Briefly: purified protein. The data set is classed as biochemical, Homo sapiens. The following applies: zinc active site.

Substrate in data set [2]: Nc1ccn([C@H]2C[C@H](O)[C@@H](CO)O2)c(=O)n1
Briefly: purified protein. Conditions: zinc active site.

B1: human cytidine deaminase (CDA) (Homo sapiens; Y33G) (protein)
chain: MAQKRPACTLKPECVQQLLVCSQEAKKSAYCPGSHFPVGAALLTQEGRIFKGCNIENACYPLGICAERTAIQKAVSEGYKDFRAIAIASDMQDDFISPCGACRQVMREFGTNWPVYMTKPDGTYIVMTVQELLPSSFGPEDLQKTQ
The term Km denotes the substrate concentration at which the rate is half of its maximum. The Vmax is the top rate of the reaction or transport when substrate is in excess. Take B1: in the data set “purified protein [1]”, the Km came to 349.0 µM and the Vmax was found to be 0.174 µmol/min/mg. Besides, in “purified protein [2]”, the Km came out at 47.6 µM and the Vmax came out at 0.127 µmol/min/mg.
